Test results from patent US20120316113A1, “FGF BASED FIBRIN BINDING PEPTIDES” (Baxter Healthcare S.A., priority 2011, published 2012).
“Also recorded” adds a separate entry of the source.

What was measured:
fibrinogen [1] = target: T1, fibrinogen (Homo sapiens, UniProt P02671+P02675+P02679); test: Fibrinogen binding assay by ELISA; settings: plate coated with 1 mg/ml fibrinogen, various concentrations, anti-His6-peroxidase detection
T1 sequence (P02671 20-629 limits assumed): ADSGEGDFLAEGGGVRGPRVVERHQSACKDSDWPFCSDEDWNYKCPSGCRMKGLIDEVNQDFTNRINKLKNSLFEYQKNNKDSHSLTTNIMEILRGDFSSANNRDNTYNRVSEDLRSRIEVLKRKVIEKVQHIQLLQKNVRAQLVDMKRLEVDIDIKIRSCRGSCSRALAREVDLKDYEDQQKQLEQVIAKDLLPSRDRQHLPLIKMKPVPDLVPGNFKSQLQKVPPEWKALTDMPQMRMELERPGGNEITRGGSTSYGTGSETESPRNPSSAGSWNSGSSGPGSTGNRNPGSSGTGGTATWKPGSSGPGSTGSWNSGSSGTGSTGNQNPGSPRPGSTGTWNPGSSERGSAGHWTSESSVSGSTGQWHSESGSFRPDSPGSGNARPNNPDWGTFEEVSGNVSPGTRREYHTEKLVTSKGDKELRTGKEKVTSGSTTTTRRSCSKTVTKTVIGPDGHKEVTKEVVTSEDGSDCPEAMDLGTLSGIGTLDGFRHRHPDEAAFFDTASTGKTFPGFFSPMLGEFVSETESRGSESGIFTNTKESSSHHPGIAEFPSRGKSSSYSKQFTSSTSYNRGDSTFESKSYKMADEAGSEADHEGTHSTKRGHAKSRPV
T1 sequence (P02675 31-491): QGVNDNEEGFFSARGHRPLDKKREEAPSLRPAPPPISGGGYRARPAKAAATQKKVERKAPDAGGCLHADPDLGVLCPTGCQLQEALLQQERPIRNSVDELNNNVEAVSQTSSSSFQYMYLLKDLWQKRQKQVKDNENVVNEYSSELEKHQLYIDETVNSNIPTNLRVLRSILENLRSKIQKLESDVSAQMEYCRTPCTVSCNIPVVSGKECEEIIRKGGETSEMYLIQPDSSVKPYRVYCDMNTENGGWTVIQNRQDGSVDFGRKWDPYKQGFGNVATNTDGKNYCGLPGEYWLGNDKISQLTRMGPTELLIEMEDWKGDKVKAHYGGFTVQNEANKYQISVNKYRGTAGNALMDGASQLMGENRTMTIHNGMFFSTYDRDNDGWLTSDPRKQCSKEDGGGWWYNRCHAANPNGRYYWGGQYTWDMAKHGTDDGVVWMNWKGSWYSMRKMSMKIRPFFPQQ
T1 sequence (P02679 27-433 limits assumed): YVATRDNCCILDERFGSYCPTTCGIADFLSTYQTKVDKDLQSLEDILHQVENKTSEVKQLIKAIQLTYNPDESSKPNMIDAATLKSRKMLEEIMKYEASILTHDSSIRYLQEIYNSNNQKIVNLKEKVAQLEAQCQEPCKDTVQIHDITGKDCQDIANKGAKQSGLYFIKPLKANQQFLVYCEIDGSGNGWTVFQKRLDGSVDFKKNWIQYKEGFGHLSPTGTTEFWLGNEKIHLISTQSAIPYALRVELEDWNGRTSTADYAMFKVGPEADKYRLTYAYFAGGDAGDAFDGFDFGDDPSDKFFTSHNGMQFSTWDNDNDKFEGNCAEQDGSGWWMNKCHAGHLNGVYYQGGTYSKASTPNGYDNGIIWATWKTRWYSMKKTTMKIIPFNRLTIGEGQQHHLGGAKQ
Description: (§1) A polystyrene 96-well plate (Nunc® Maxisorp EUSA-plates) was coated with 1 mg/ml fibrinogen (Tisseel®, Baxter AG, Vienna) overnight at 4° C. and then blocked with blocking solution (PBS+1% BSA) for 2 hours at room temperature CRT). After washing three times with PBS, purified peptides were added in various dilutions to the plate and incubated for 1 hour at RT. After the three times washing with PBS, a monoclonal anti-His6-peroxidase antibody (Sigma-Aldrich, Vienna), diluted in PBS+0.1% Tween (Sigma-Aldrich, Vienna) was added and incubated for 1 hour at RT. Finally, the plate was washed three times with PBS again and wells were incubated with o-phenylenediaminehydrochlorid substrate. Absorbance was measured at 492 nm and 620 nm. For fibrin binding analysis, the plate was first coated with fibrinogen overnight at 4° C. and then incubated with 10 I.U./ml thrombin (Tisseel, Baxter AG, Vienna) for 30 minutes at 37° C. The following procedure was the same as described above. For the surface plasmon resonance (SPR) method fibrinogen was coupled to a gold sensor chip (10% COOH—(PEG)6-C11—SH, 90% OH(PEG)3-C11—SH; Reichert Analytical, NY, USA) by amine chemistry using EDC (1-ethyl-3-[3-dimethylaminopropyl]carbodiimide hydrochloride) and NHS (N-hydroxysuccinimide) (Pierce, Ill., USA). Uncoupled sites on the gold sensor chip were blocked with 1 M ethanolamine pH 8.5 (Sigma-Aldrich, MO, USA). The purified recombinant proteins and peptides were passed over the chip's surface at a flow rate of 0.4 ml/min to 0.8 ml/min and allowed to interact. The signals were detected and recorded at the Reichert SR7000 Surface Plasmon Resonance Analytical Instrument (Reichert Analytical, NY, USA). After each measurement the sensor chip surface was regenerated by a pulse with 100 mM phosphoric acid (Mallinckrodt Chemicals, NJ, USA) after each application of the samples. Association and dissociation signals were fitted to one association curve using a prism software calculation program.
Purified, proteins and peptides in different concentrations were used for testing the binding affinity to fibrinogen and fibrin (FIG. 5).

fibrinogen [2] = target: T1, fibrinogen; test: Surface plasmon resonance (SPR) binding to fibrinogen coupled to gold sensor chip; settings: for binding signal (SPR): fibrinogen on sensor chip, fitted association curves
Description: as §1

[3] = tested on: mouse myoblast cell line (C2C12); test: Biological activity: viability (MTT) assay of mouse myoblast C2C12 cells; assay type: cell-based; settings: for proliferative activity / cell growth effect: 48 hours, DMEM+1% FCS, MTT
Description: A moose myoblast cell line (C2C12; ECACC (Sigma-Aldrich, Vienna)) was grown in Dulbecco's Modified Eagle Medium (DMEM) with 10% fetal calf serum (FCS). At 50-60% confluence cells were trypsinized and transferred to a 24-well plate (1×10^4/well).
Following a 48-hour-culture period at 37° C., cells were washed with DMEM only and then covered with medium (DMEM+1% FCS) containing various concentrations of hFGF-2 or hFGF-2 peptides. After 48 hours number of viable cells was determined by adding 3-(4,5-dimethylthiazol-2-yl)-2,5-diphenyltetrazolium bromide (MTT, Sigma-Aldrich, Vienna) as previously described {M05}.

| binding affinity to fibrinogen (fibrinogen [1]) | binding signal (SPR) (fibrinogen [2]) | binding affinity to fibrinogen (fibrinogen [1]; listed as Pep5) | Sequence | binding characteristics to fibrinogen (SPR) (fibrinogen [2]; compared to full-length recombinant hFGF-2) | proliferative activity / cell growth effect [3] | activity retained relative to the full length protein ([3]; relative to full length hFGF-2) |
| --- | --- | --- | --- | --- | --- | --- |
| high affinity | weak and short binding signals |  | EDGRLLASKCVTDECFFFERLESNNYNTYRSRHHHHH (EDGRLLASKCVTDECFFFERLESNNYNTYRSRHHHHH; synthetic peptide pep 3 (37 aa), peptide #3, pep3 with C-terminus 5x HIS-tag) [also expressed recombinantly] |  |  | approximately 50% |
| nearly no binding affinity | weak and short binding signals | little binding affinity | FERLESNNYN TYRSRHHHHH (FERLESNNYNTYRSRHHHHH; synthetic peptide pep 5 (20 aa), peptide #5, pep5 with C-terminus 5x HIS-tag) |  | did not stimulate C2C12 cell growth; also recorded: little biological activity |  |

| Sequence | binding affinity to fibrinogen (fibrinogen [1]) | binding signal (SPR) (fibrinogen [2]) | binding affinity to fibrinogen (fibrinogen [1]; listed as Pep5) | binding characteristics to fibrinogen (SPR) (fibrinogen [2]; compared to full-length recombinant hFGF-2) | proliferative activity / cell growth effect [3] | activity retained relative to the full length protein ([3]; relative to full length hFGF-2) |
| --- | --- | --- | --- | --- | --- | --- |
| KCVTDECFFFERLESNNYNTYRSRHHHHH (KCVTDECFFFERLESNNYNTYRSRHHHHH; synthetic peptide pep 4 (29 aa), peptide #4, pep4 with C-terminus 5x HIS-tag) | significantly lower binding | significantly lower compared to hFGF-2 but more consistently over a longer period of 300 seconds; also recorded: lower binding signals than that of hFGF-2 |  | confirmed the binding affinity to fibrinogen | less activity, but similar to full length hFGF-2 |  |
